Data on four molecules can be found in patent US8703698B2, “Compositions and methods for treating atherosclerosis” (The University of Chicago, priority 2003, dated 2014).

One data set has as its system THP-1 cells. The data set is described as follows: Cholesterol efflux from cholesterol-laden human THP-1 cells. It is filed as cell-based. The conditions noted are these: liposomal formulations; cholesterol-laden THP-1 cells differentiated with phorbol myristate acetate. The method, then:
These monocytes were differentiated into macrophages with phorbol myristate acetate (100 nM). In these experiments, cholesterol-laden human THP-1 cells were exposed to liposomal formulations comprising a peptide corresponding to amino acids 1-20 of murine SAA2.1 (SEQ ID NO:1), a peptide corresponding to amino acids 74-103 of murine SAA2.1 (SEQ ID NO:4), a peptide corresponding to amino acids 1-20 of murine SAA1.1 plus an arginine at the N-terminus (SEQ ID NO:7), or a peptide corresponding to amino acids 1-20 of murine SAA2.1 (SEQ ID NO:1) and a peptide corresponding to amino acids 74-103 (SEQ ID NO:4) of murine SAA2.1. Results from these experiments are depicted in FIG. 4. […] Studies were carried out to determine whether murine SAA2.1 increases cholesterol export from a human derived monocytic cell line, THP-1 (obtained from American Type Culture Collection, Manassas, Va.; ATCC#TIB-202). Human monocytes were cultured in T-75 flasks with 30 ml RPMI 1640 medium containing 2 mM L-glutamine, 4.5 g/L glucose, 10 mM HEPES, 1.0 mM […] and supplemented with 0.05 mM 2-mercaptoethanol and 10% fetal bovine serum. Subsequently, five million cells were placed in each well of a 6-well tissue culture plate. The monocytes were differentiated into macrophages by treatment with phorbol myristate acetate (100 nM). THP-1 macrophages were enriched with cholesterol by incubating with red blood cells membrane fragments (175 μg as cholesterol) that had been previously labelled with 0.5 μCi/mL[^3H]-cholesterol at 37° C. for 6 hours in 0.2% bovine serum albumin, followed by an overnight equilibration period. Cells were washed four times with PBS/BSA prior to efflux studies. Cells were then incubated at 37° C. with 2 mL RPMI-BSA containing 5% LPDS and 50 μg/mL of either native HDL, SAA-HDL, liposomes containing 2 μmoles of apoA-I, SAA1.1 or 2.1, or liposomes containing 0.5 μmoles synthetic peptides corresponding to amino acid residues 1-20 (SEQ ID NO:1), 21-50 (SEQ ID NO:2), 51-80 (SEQ ID NO:3) or 74-103 (SEQ ID NO:4) of murine SAA2.1. The efflux media were collected at 0, 1, 2, 4, 8, 16 and 24 hours, centrifuged to remove cell debris, and then used to measure the exported counts. […] A portion of the cells was lysed in 0.1N NaOH to estimate both the remaining radioactivity and the cellular protein content. Cellular lipids were extracted from the remaining portion of the cells and analyzed by thin-layer chromatography as described by Mendez et al. (J. Clin. Invest. 1994 94:1698-1705) and Oram et al. (Arterioscler. Thromb. 1991 11:403-414). The radioactivity in appropriate spots was measured to determine total cellular cholesterol counts. Efflux of radioactive label to the medium was calculated as the percentage of total counts (cell+medium counts) in each well.

In data set [1] the test system is cholesterol ester hydrolase. The data set is described as follows: Rate of hydrolysis of cholesteryl ester in cholesterol-laden J774 cells (cholesterol ester hydrolase activity). It is filed as cell-based, murine. The method, then:
Identification of the domain of SAA2.1 that is responsible for enhancing cholesterol ester hydrolase activity was performed in J774 cells preloaded with radio-labeled cholesteryl esters. These experiments were performed in the presence of Sandoz 58-035, an inhibitor of acyl CoA:cholesterol acyl transferase activity, to prevent re-esterification of liberated cholesterol and [^14C]oleate. Incubations proceeded for times ranging from 0 to 24 hours, following which the remaining quantities of [^14C]-labeled cholesteryl oleate in cells were measured to determine the rate of hydrolysis of cholesteryl ester. […] However, an equivalent amount of liposomes containing the synthetic peptide corresponding to amino acid residues 74-103 of murine SAA2.1 caused a 3-fold increase in cholesterol ester hydrolase activity in these cholesterol-laden murine cells. Newly confluent J774 cells were labeled with [^14C]-oleate during cholesterol loading with red blood cell membranes as described above. Cells were then incubated for up to 24 hours with 2 mL of DMEM containing 5% LPDS and 50 μg/mL of either native HDL, SAA-HDL, liposomes containing 2 μmoles of apoA-1, SAA1.1 or 2.1, or liposomes containing 0.5:mol synthetic peptides corresponding to amino acid residues 1-20 (SEQ ID NO:1), 21-50 (SEQ ID NO:2), 51-80 (SEQ ID NO:3) and 74-103 (SEQ ID NO:4) of murine SAA2.1. To determine the rate of cholesteryl ester hydrolysis, 2 μg/mL of the acyl CoA:cholesterol acyl transferase inhibitor Sandoz 58-035 (propanimide, 3-(decyldimethylsilyl)-N-[2-(4-methylphenyl)-1-phenylethyl]-(9Cl) was added during incubation with lipoproteins or liposomes to prevent […] and free cholesterol. To examine whether or not the rate of cholesteryl ester hydrolysis involved the lysosomal cholesteryl ester hydrolase, the cells were cultured in the presence of 50 μg/mL of either native HDL and chloroquine or SAA-HDL and chloroquine (100:M). Chloroquine is an agent that neutralizes the lysosomal proton gradient. At various time points, cellular lipids were extracted and analyzed for cholesteryl ester radioactivity as described above.

The target in data set [2] is T1, acyl CoA:cholesterol acyl transferase (Mus musculus, UniProt Q61263).
T1 construct: The relative activity of acyl CoA:cholesterol acyl transferase was determined in cholesterol-laden cells; host or cells: J774 mouse macrophages, cholesterol-loaded
T1 sequence (Q61263 1-540): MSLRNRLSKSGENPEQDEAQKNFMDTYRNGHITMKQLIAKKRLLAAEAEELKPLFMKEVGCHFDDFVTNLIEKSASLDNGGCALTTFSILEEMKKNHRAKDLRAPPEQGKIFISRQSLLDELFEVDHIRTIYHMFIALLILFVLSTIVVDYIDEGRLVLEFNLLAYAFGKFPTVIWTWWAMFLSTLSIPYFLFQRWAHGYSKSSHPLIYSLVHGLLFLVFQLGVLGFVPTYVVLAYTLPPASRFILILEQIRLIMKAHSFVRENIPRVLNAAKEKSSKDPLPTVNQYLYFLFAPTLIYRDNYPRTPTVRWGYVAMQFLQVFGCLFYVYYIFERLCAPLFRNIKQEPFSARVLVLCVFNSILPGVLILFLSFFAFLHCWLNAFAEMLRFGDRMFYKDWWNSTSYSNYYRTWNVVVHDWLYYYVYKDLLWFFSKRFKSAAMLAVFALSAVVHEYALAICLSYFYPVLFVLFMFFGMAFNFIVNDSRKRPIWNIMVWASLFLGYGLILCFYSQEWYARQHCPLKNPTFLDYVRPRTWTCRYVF
The conditions noted are these: intact murine macrophages and post-nuclear homogenates; Ely et al. 2001; cited from earlier work.

Data set [3] addresses T1, acyl CoA:cholesterol acyl transferase. Description: Incorporation of [14C]oleate into cholesteryl ester in cholesterol-laden macrophages (ACAT activity). It is filed as cell-based, murine. The conditions noted are these: lipoproteins or protein liposomes; tissue culture. As for the experimental part:
The incorporation of [^14C]oleate into cholesteryl ester was used as a measure of acyl CoA:cholesterol acyl transferase activity to identify compositions inhibiting the enzyme activity. The relative acyl CoA:cholesterol acyl transferase activity was determined in cholesterol-laden murine cells that had been cultured in medium in the absence of liposomes or in the presence of protein-free liposomes or liposomes containing 0.5 μM synthetic peptides corresponding to amino acids 1-20, 21-50, 51-80 and 74-103 of murine SAA2.1.
To load the cells with cholesterol, nearly confluent mono-layers were washed 3 times with phosphate buffered saline containing 2 mg/mL fatty acid-free bovine serum albumin (PBS-BSA) and incubated for 5 hours in DMEM supplemented with 5% lipoprotein-depleted serum (LPDS) (d>1.25 g/mL) and 175 μg of red blood cell membrane cholesterol. For the purpose of pool equilibration of added cholesterol, cell cultures were rinsed twice with PBS-BSA and incubated overnight in DMEM containing 5% LPDS. The relative activity of acyl CoA:cholesterol acyl transferase was determined in cholesterol-laden cells that had been cultured in medium containing no liposomes, protein-free liposomes or liposomes containing 0.5:M synthetic peptides corresponding to amino acid residues 1-20 (SEQ ID NO:1), 21-50 (SEQ ID NO:2), 51-80 (SEQ ID NO:3) or 74-103 (SEQ ID NO:4) of murine SAA2.1, respectively. Following 3 hours incubation with the above media, [^14C]-oleate was added and the cells were incubated for another 3 hour period (Mendez et al. J. Clin. Invest. 1994 94:1698-1705; Oram et al. Arterioscler. Thromb. 1991 11:403-414). Cells were chilled on ice and washed twice with PBS-BSA and twice with PBS. After addition of [^3H]-cholesteryl oleate (6000 dpm/well) as an internal standard, the lipids were extracted from the labeled cells and analyzed by thin-layer chromatography as described by Mendez et al. (J. Clin. Invest. 1994 94:1698-1705) and Oram et al. (Arterioscler. Thromb. 1991 11:403-414). The radioactivity in appropriate spots was measured to determine the incorporation of radioactivity into cholesteryl esters as a measure of acyl CoA:cholesterol acyl transferase activity.

In a further data set the test system is J774 macrophages. The data set is described as follows: Cholesterol efflux from cholesterol-laden J774 macrophages to apolipoprotein liposomes with 8-bromo-cAMP or methyl-β-cyclodextrin. It is filed as cell-based, mouse. The conditions noted are these: 8-bromo-cAMP 0.3 mM, 12 hours; Sandoz 58-035 present. The text has this:
The export process of cholesterol is coupled to the ATP binding cassette transporter (ABCA1) pathway. Lipid efflux to apolipoproteins has been shown previously to be stimulated by treatment of murine macrophages with cAMP analogues (Lin et al. 2002 Biochem Biophys Res. Commun. 290:663-669; Oram et al. 2000 J. Biol. Chem. 275:34508-34511). Also, the expression of ABCA1 is induced by cAMP treatment (Lin et al. 2002 Biochem Biophys Res. Commun. 290:663-669; Oram et al. 2000 J. Biol. Chem. 275:34508-34511). The inventors herein examined the effect of 8-bromo-cAMP (0.3 mM) on cholesterol efflux by liposomes containing various apolipoproteins when incubated with cholesterol-laden J774 macrophages. Such cells were pre-labeled with [^3H]-cholesterol in the presence of Sandoz 58-035, an ACAT inhibitor, to ensure that all of the radiolabeled cholesterol released from the cells was derived from the un-esterified cholesterol pool, and the cells were treated for 12 hours with 8-bromo-cAMP. This was followed by incubation with various acceptors. The fractional release of cellular labeled cholesterol was determined as a function of time.
To investigate whether an apolipoprotein free cholesterol acceptor such as cyclodextrin has the ability to catalyze the removal of cholesterol from macrophages, cholesterol-loaded and labeled J774 cells were incubated with liposomes and methyl-β-cyclodextrin (0.1 mM) (CD).
To examine whether cholesterol export from J774 cells to medium containing liposomes containing 2 μM murine apoA-1, SAA1.1 or SAA2.1 is a cAMP-dependent process, the radio-labeled cholesterol-laden cells were incubated overnight with 8-Br-cAMP (0.3 mM), prior to the addition of liposomes containing 2 μM murine apoA-1, SAA1.1 or SAA2.1 to the culture medium. Cholesterol efflux to the medium was then determined at the indicated time points as described above. Efflux of radioactive label to the medium was calculated as a percentage of total counts in each well.

Data set [4] addresses T1, acyl CoA:cholesterol acyl transferase. The data set is described as follows: ACAT activity in macrophage post-nuclear homogenates. It is filed as biochemical, murine. The conditions noted are these: macrophage post-nuclear homogenates as enzyme source. From the text: The in vitro effects of acute phase-HDL (AP-HDL;HDL-SAA) on acyl CoA:cholesterol acyl transferase and cholesterol ester hydrolase activities and on cellular cholesterol export were studied by the inventors using purified enzymes, cell homogenates, and whole cells. […] In contrast, murine SAA1.1 and apoA-1 had no effect. […] Using macrophages preloaded with radio-labeled cholesterol and injected intravenously into either inflamed or un-inflamed mice, it was shown that the inflamed mice, which have high SAA2.1 levels, effluxed cholesterol more rapidly and to a greater extent (6-fold greater) than their un-inflamed counterparts.

In the case of “GFFSFIGEAFQGAGDMWRAY [SEQ ID NO:5, synthetic peptide, residues 1-20 of murine SAA1.1]”, the “cholesterol efflux, time course (FIG. 4)” value in the data set on THP-1 cells was “inactive”.
“GFFSFVHEAFQGAGDM [murine SAA2.11-16, 16-mer released by cyanogen bromide cleavage of murine SAA2.1, residues 1-16, reference compound]”: the “effect on cholesterol ester hydrolase activity” value in data set [1] (fragment released by cyanogen bromide cleavage) is reported as “produced no effect”. In addition, the “macrophage ACAT activity” value in data set [2] was “profound effect inhibiting ACAT activity in a dose-dependent manner”.
Consider “RGFFSFIGEAFQGAGDMWRAY [SEQ ID NO:7, residues 1-20 of murine SAA1.1 plus an arginine at the N-terminus]”, for which, in the data set on THP-1 cells, the “cholesterol efflux, time course (FIG. 4)” value is listed as “effectively increased cholesterol efflux”.

B1: apoA-1: apolipoprotein isolated from acute phase murine plasma, reconstituted in liposomes (protein, UniProt Q00623 25-264, looked up)
Apolipoprotein A-I: DEPQSQWDKVKDFANVYVDAVKDSGRDYVSQFESSSLGQQLNLNLLENWDTLGSTVSQLQERLGPLTRDFWDNLEKETDWVRQEMNKDLEEVKQKVQPYLDEFQKKWKEDVELYRQKVAPLGAELQESARQKLQELQGRLSPVAEEFRDRMRTHVDSLRTQLAPHSEQMRESLAQRLAELKSNPTLNEYHTRAKTHLKTLGEKARPALEDLRHSLMPMLETLKTQVQSVIDKASETLTAQ
modifications: reconstituted in liposomes
With B1, in data set [1] (lipoproteins or protein liposomes, tissue culture), the “cholesterol ester hydrolase activity in intact cholesterol-laden macrophages” value was “no effect on enzyme activities”. Further, the “acyl CoA:cholesterol acyl transferase activity in intact cholesterol-laden macrophages” value in data set [3] was “no effect on enzyme activities”. The “increase in the initial rate of cholesterol efflux to liposomes after cAMP pre-treatment versus untreated cells” value in the data set with J774 macrophages amounted to 32.7%. For the same molecule, the “acyl CoA:cholesterol acyl transferase activity” value in data set [4] is recorded as “had no effect”.
